Assay results from article PMC7429351, “Comparison of ligand binding and conformational stability of human calmodulin with its homolog from the malaria parasite Plasmodium falciparum” (FASEB BioAdvances, 2020).
“And” between values parts separate entries of the source, which are not always exact repeats. Identical values can stand only once. Like-named read-outs stand apart in the source and are kept apart here.

What was measured:
[1] = molecular target: T1, Pf CaM (Plasmodium falciparum, UniProt P62203); experiment: Calcineurin activity assay, inhibition of Pf CaM function; assay type: biochemical; conditions: for inhibition of Pf CaM function in CaN activity assay: screen of selected Malaria Box compounds
T1 construct: properties of the whole protein can be explored with differential scanning calorimetry; made in house; host or cells: E coli
Experimental: (§1) Calcineurin (PPase‐2B, CaN) was purchased from Promega (V6361, isolated from bovine brain). Dephosphorylation of the substrate p‐nitrophenyl phosphate (PNPP, Sigma, 1040) was followed by monitoring the increase in absorbance at 405 nm using a Perkin Elmer EnSpire microplate reader. The CaN activity was assayed by measuring the initial velocities at 28°C in 50 mmol/L Tris, pH 7.5 containing 0.001 unit/μL CaN, 0.1 mg/mL BSA, 20 mmol/L PNPP, 1 mmol/L NiCl2, and various amounts of CaM to determine dose‐response curves for CaN activation by CaM.

[2] = molecular target: T1, Pf CaM; experiment: biochemical; assay type: binding; conditions: ITC
From the text: (§2) Titration curves were fitted with the models provided by the built‐in Origin software (MicroCal.).

[3] = test system: 3D7 chloroquine sensitive but sulfadoxine resistant strain of P falciparum; parameters: method as in earlier work; conditions: blood stage, 3D7 strain; ref MMV website (https://www.mmv.org/mmv-open/malaria-box/malaria-box-supporting-information); cited from earlier work
[4] = molecular target: T2, human CaM (Homo sapiens, UniProt P0DP23); experiment: Isothermal titration calorimetry, ligand titrated with human CaCaM; assay type: binding; conditions: ITC, 25°C, 1 mmol/L CaCl2, one set of sites model
T2 construct: properties of the whole protein can be explored with differential scanning calorimetry; made in house; host or cells: E coli
From the text: as §2

[5] = molecular target: T3, human CaM (dansyl-labeled) (Homo sapiens, UniProt P0DP23); experiment: Dansyl-CaM fluorescence titration, human CaM; assay type: binding; conditions: hyperbolic fit
T3 construct: properties of the whole protein can be explored with differential scanning calorimetry; made in house; host or cells: E coli
Experimental: (§3) Spectra were collected using a Jobin Yvon Fluoromax‐3 spectrofluorometer at 25°C in the standard assay buffer containing either 1 mmol/L EGTA or 1 mmol/L CaCl2. Spectra were recorded three times, averaged, and corrected by subtracting the appropriate blank. Tyrosine fluorescence was excited at 274 nm, the emission was detected between 285 and 370 nm, and the intensities were recorded at 303 nm. In ANS binding assays, 10 μmol/L of ANS (8‐anilinonaphtalene‐1‐sulfonic acid, Fluka, 10417) was excited at 388 nm in the presence of 2 μmol/L CaM in standard assay buffer, and the emission was monitored from 410 to 600 nm. In experiments with dansyl‐labeled CaM, the fluorophore was excited at 340 nm, and the emission was monitored from 400 to 600 nm.

[6] = molecular target: T4, dansyl-labeled Pf CaM (Plasmodium falciparum, UniProt P62203); experiment: Dansyl-CaM fluorescence titration, Pf CaM; assay type: binding; conditions: hyperbolic fit
T4 construct: properties of the whole protein can be explored with differential scanning calorimetry; made in house; host or cells: E coli
Experimental: as §3

[7] = molecular target: T2, human CaM; experiment: Calcineurin activity assay, inhibition of human CaM function; assay type: biochemical
Experimental: as §1

[8] = molecular target: T1, Pf CaM; experiment: ANS binding fluorescence, Pf CaM; conditions: 10 μmol/L ANS
Experimental: as §3

[9] = molecular target: T2, human CaM; experiment: ANS binding fluorescence, human CaM; conditions: 10 μmol/L ANS
[10] = CD melting curves at 222 nm; assay type: physicochemical; conditions: CD 222 nm
Experimental: CD spectra were recorded on Jasco J‐720 and J‐810 spectropolarimeters (Jasco) using quartz cuvettes with pathlengths of 1 mm in the far‐UV and 1 cm in the near‐UV range. Samples were measured in the standard assay buffer complemented with 1 mmol/L EGTA or CaCl2 at a protein concentration of 5‐8 μmol/L in the far‐UV and 210 μmol/L in the near‐UV. Spectra were recorded at least three times at a scan speed of 20 nm/min using a bandwidth and response time of 1 nm and 4 seconds, respectively. Secondary structure content was estimated using the BeStSel method available at http://bestsel.elte.hu. ^24 Melting curves were measured in standard assay buffer or 25 mmol/L phosphate, pH 7.0, in the presence of 1 mmol/L EGTA or saturating levels of CaCl2 monitoring the ellipticity at 222 nm for secondary structure changes or at 280 nm to monitor the signal of Tyr residues. A heating rate of 1 or 2°C/min was used. In a well‐sealed 1 mm‐cell, heating up to 110°C was possible.

[11] = Differential scanning calorimetry thermal denaturation; assay type: physicochemical; conditions: DSC; for T m1 / ΔH1 / ΔHv1: first transition; for T m1 / T m2: 1°C/min; for ΔH1 / ΔH2: calorimetric enthalpy; for ΔHv1 / ΔHv2: van't Hoff enthalpy; for T m2 / ΔH2 / ΔHv2: second transition
Experimental: Thermograms were measured in the standard assay buffer complemented with 1 mmol/L EGTA or CaCl2 using a VP‐DSC microcalorimeter (MicroCal). Protein samples at 0.75 mg/mL were heated at a scan rate of 1°C/min with no feedback. Data analysis was performed with the Origin software provided by MicroCal.

[12] = Differential scanning fluorimetry (nanoDSF, intrinsic fluorescence); assay type: physicochemical; conditions: DSF, 5°C/min, C-domain Tyr fluorescence
Experimental: Denaturation curves were determined by detecting intrinsic protein fluorescence as a function of temperature using the Prometheus instrument (NanoTemper Technologies). Protein samples at 1.0‐1.5 mg/mL were heated at a scan rate of 5°C/min up to 110°C in the standard assay buffer using the designated set and capillaries. Data analysis was performed with the built‐in analysis software.

[13] = test system: bovine PDE; experiment: PDE activation by CaM; assay type: biochemical; conditions: 150 nmol/L CaM, 1 mmol/L CaCl2
[14] = molecular target: T5, human MLCK (Homo sapiens, UniProt Q15746); experiment: MLCK activation by CaM (ADP-Glow); assay type: biochemical; conditions: 30 minutes, room temperature
T5 construct: GST; purchased Sigma M9197
T5 sequence (Q15746 1425-1771 limits assumed): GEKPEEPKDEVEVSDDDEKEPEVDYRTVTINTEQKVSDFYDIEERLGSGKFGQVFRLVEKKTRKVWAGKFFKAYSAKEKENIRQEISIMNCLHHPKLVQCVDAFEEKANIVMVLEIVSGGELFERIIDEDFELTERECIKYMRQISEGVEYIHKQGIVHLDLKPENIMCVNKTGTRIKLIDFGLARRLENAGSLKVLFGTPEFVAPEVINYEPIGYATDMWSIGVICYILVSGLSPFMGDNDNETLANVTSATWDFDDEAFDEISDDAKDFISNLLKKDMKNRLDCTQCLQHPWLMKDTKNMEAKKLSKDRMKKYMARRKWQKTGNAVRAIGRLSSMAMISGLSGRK
Experimental: Myosin light chain kinase (MLCK) was purchased from Sigma (M9197, human, recombinant, GST‐tagged). Enzyme activity was measured in standard buffer complemented with 0.5 mmol/L CaCl2, 2.5 mmol/L MgCl2, and 0.1 mg/mL BSA. When measuring activation by CaM, 20 μL reaction mixtures contained 3.5 ng/μL MLCK, 0.1 mg/mL MLCK substrate (Sigma SCP0196), 50 μmol/L ATP, 0.5 mmol/L DTT, and various amounts of CaM. Samples were incubated for 30 minutes at room temperature then ADP formed during the kinase reaction was detected using the ADP‐Glow Kinase Assay kit (Promega) according to the manufacturer's instructions. Luminescence values proportional to ADP concentration were normalized to maximal intensities obtained at saturating CaM concentrations.

[15] = molecular target: T6, bovine brain CaN (Bos taurus, UniProt P48452); experiment: Calcineurin activation by CaM; assay type: biochemical; conditions: PNPP substrate, 28°C
T6 construct: purchased Promega V6361; host or cells: bovine brain
T6 sequence (P63099 2-170 partner limits assumed, other chains not shown): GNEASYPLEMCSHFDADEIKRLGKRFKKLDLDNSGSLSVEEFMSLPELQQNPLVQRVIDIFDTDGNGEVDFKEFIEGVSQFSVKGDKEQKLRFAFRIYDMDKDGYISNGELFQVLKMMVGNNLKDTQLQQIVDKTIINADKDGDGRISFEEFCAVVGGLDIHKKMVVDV
Experimental: as §1

Cl.N=c1n(CCN2CCCCC2)c2ccccc2n1CC(O)c1cccc(Br)c1 (stereo not shown) [MMV665902]
inhibition of Pf CaM function in CaN activity assay [1]: showed inhibitory effect

CC[C@H](C)[C@H](NC(=O)CN)C(=O)NCC(=O)N[C@@H](C)C(=O)N[C@H](C(=O)N[C@@H](CC(C)C)C(=O)N[C@@H](CCCCN)C(=O)N[C@H](C(=O)N[C@@H](CC(C)C)C(=O)N[C@H](C(=O)N[C@H](C(=O)NCC(=O)N[C@@H](CC(C)C)C(=O)N1CCC[C@H]1C(=O)N[C@@H](C)C(=O)N[C@@H](CC(C)C)C(=O)N[C@H](C(=O)N[C@@H](CO)C(=O)N[C@@H](Cc1c[nH]c2ccccc12)C(=O)N[C@H](C(=O)N[C@@H](CCCCN)C(=O)N[C@@H](CCCNC(=N)N)C(=O)N[C@@H](CCCCN)C(=O)N[C@@H](CCCNC(=N)N)C(=O)N[C@@H](CCC(N)=O)C(=O)N[C@@H](CCC(N)=O)C(N)=O)[C@@H](C)CC)[C@@H](C)CC)[C@@H](C)O)[C@@H](C)O)C(C)C)C(C)C [melittin]
Kd ([2]; K d, one set of sites model, upper limit): < 0.03 µM

O=C(NCC(c1ccsc1)N1CCCCCC1)c1ccc(C(F)(F)F)cc1 (stereo not shown) [MMV396672]
inhibition of Pf CaM function in CaN activity assay [1]: showed inhibitory effect

OC(CNCC1CCCO1)Cn1c2ccc(Cl)cc2c2cc(Cl)ccc21 (stereo not shown) [MMV396736]
Kd ([2]; 25°C, 1 mmol/L CaCl2, one set of sites model, read-out: K d): 2.5 ± 0.2 µM
stoichiometry n ([2]; one set of sites model): ~ 8 and 7.4 ± 0.1
EC50 [3]: 1.06 µM
Kd [4]: 2.5 ± 0.5 µM
Kd [5]: 1.8 ± 0.4 µM
Kd [6]: 2.4 ± 0.4 µM
IC50 [7]: 1.6 ± 0.76 µM
IC50 [1]: 6.2 ± 1.5 µM
inhibition of Pf CaM function in CaN activity assay [1]: showed inhibitory effect

O=C(Nc1ccc(F)c(Cl)c1)Nc1ccc(Cl)c(Cl)c1 [MMV665953]
inhibition of Pf CaM function in CaN activity assay [1]: showed inhibitory effect

O=S(=O)(O)c1cccc2cccc(Nc3ccccc3)c12 [ANS, 8‐anilinonaphthalene‐1‐sulfonic acid]
ANS binding (fluorescence) ([8]; 2 μmol/L CaCaM, compared with human CaCaM): approximately twofold higher fluorescence intensity
ANS binding (fluorescence) ([8]; 2 μmol/L apoprotein): no ANS binding
ANS binding (fluorescence) ([9]; 2 μmol/L CaCaM): remarkable ANS binding
ANS binding (fluorescence) ([9]; 2 μmol/L apoprotein): no ANS binding

Pf apoCaM: Plasmodium falciparum calmodulin, Ca2+-free apo form
T m ([10]; in phosphate buffer of low ionic strength): 51.2 ± 0.1 °C
T m ([10]; standard assay buffer): 54.4 ± 0.2 °C
T m1 [11]: 54.7 ± 0.2 °C
ΔH1 [11]: 41.2 ± 1.2 kcal/mol
ΔHv1 [11]: 48.1 ± 0.4 kcal/mol
T m2 [11]: 64.3 ± 0.1 °C
ΔH2 [11]: 33.4 ± 1.2 kcal/mol
ΔHv2 [11]: 53.5 ± 0.6 kcal/mol
T m [12]: 51.2 ± 0.6 °C

Pf CaCaM: Plasmodium falciparum calmodulin, Ca2+‐saturated form
T m1 [11]: 92.6 ± 0.1 °C
ΔH1 [11]: 47.8 ± 0.3 kcal/mol
ΔHv1 [11]: 44.5 ± 0.3 kcal/mol
T m2 [11]: 125.9 ± 0.2 °C
ΔH2 [11]: 97.9 ± 2.2 kcal/mol
ΔHv2 [11]: 65.7 ± 0.8 kcal/mol

Pf CaM: Recombinant Plasmodium falciparum calmodulin (Uniprot P62203) expressed in E coli
increase of PDE activity [13]: the same activation effect
EC50 [14]: ~0.015 µM
EC50 [15]: 0.001 µM
activation by CaM (elevation of the basal activity) [15]: 2.1 fold
T m [12]: ~ 51 °C
